Target: T1, human neutrophil elastase (human, UniProt P08246 30-247, limits assumed)
T1 construct: also called HNE; hNE
T1 sequence (looked up): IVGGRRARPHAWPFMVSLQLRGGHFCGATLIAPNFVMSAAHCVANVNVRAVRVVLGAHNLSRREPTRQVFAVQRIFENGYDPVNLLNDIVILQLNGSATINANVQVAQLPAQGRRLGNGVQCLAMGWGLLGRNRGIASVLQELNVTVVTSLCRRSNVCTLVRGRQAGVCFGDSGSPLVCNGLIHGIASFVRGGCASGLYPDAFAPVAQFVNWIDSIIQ
Assay: equilibrium inhibition of HNE activity on a fluorogenic peptide substrate, tight-binding model, 24 h incubation at 30 C
Procedure: Inhibition of hNE was determined at 30° C. in 50 mM HEPES, pH 7.5, 150 mM NaCl, and 0.1% Triton X-100. […] Residual enzymatic activities were determined from the relative rates of substrate hydrolysis. The hydrolysis reaction was initiated by addition of N-methoxysuccinyl-Ala-Ala-Pro-Val-7-amino-methylcoumarin (SEQ ID No.: 41) as substrate. Enzymatic cleavage of this substrate releases the methylcoumarin moiety with concomitant increase the sample fluorescence. The rate of substrate hydrolysis was monitored at an excitation of 360 nm and an emission of 460 nm. Plots of the percent remaining activity versus inhibitor concentration were fit by nonlinear regression analysis to Equation 1 to determine equilibrium dissociation constants.

B1: DX-890 (peptide)
chain: EACNLPIVRGPCIAFFPRWAFDAVKGKCVLFPYGGCQGNGNKFYSEKECREYCGVP
notes: also called native DX-890
  binding result: binds

From US20040171794A1 (DYAX, published 2004)
